Experimental data published in PMC6010203.

Target: DS_ConC_SOSIP trimer (ConC_SOSIP with the disulfide 201C-433C) (HIV-1 (clade C consensus))
Test: negative-stain electron microscopy

“DS_ConC_SOSIP trimer (ConC_SOSIP with the disulfide 201C-433C) (complex)” was tested, and the stoichiometry N was 3.
